{"source": "patent US20100021390A1", "about": "“Fluorescent Analogs Of The Islet Amyloid Polypeptide” (The Research Foundation of State University of New York, priority 2008, published 2010)", "molecules": {"B1": {"name": "hIAPP-Y37FC≡N (peptide)", "peptide": "KCNTATCATQRLANFLVHSSNNFGAILSSTNVGSNTF", "HELM": "PEPTIDE1{K.C.N.T.A.T.C.A.T.Q.R.L.A.N.F.L.V.H.S.S.N.N.F.G.A.I.L.S.S.T.N.V.G.S.N.T.[N#Cc1ccc(C[C@H](N[*:1])C(=O)[*:2])cc1].[am]}$PEPTIDE1,PEPTIDE1,2:R3-7:R3$$$V2.0; N-terminus assumed", "SMILES": "CC[C@H](C)[C@H](NC(=O)[C@H](C)NC(=O)CNC(=O)[C@H](Cc1ccccc1)NC(=O)[C@H](CC(N)=O)NC(=O)[C@H](CC(N)=O)NC(=O)[C@H](CO)NC(=O)[C@H](CO)NC(=O)[C@H](Cc1c[nH]cn1)NC(=O)[C@@H](NC(=O)[C@H](CC(C)C)NC(=O)[C@H](Cc1ccccc1)NC(=O)[C@H](CC(N)=O)NC(=O)[C@H](C)NC(=O)[C@H](CC(C)C)NC(=O)[C@H](CCCNC(=N)N)NC(=O)[C@H](CCC(N)=O)NC(=O)[C@@H](NC(=O)[C@H](C)NC(=O)[C@@H]1CSSC[C@H](NC(=O)[C@@H](N)CCCCN)C(=O)N[C@@H](CC(N)=O)C(=O)N[C@@H]([C@@H](C)O)C(=O)N[C@@H](C)C(=O)N[C@@H]([C@@H](C)O)C(=O)N1)[C@@H](C)O)C(C)C)C(=O)N[C@@H](CC(C)C)C(=O)N[C@@H](CO)C(=O)N[C@@H](CO)C(=O)N[C@H](C(=O)N[C@@H](CC(N)=O)C(=O)N[C@H](C(=O)NCC(=O)N[C@@H](CO)C(=O)N[C@@H](CC(N)=O)C(=O)N[C@H](C(=O)N[C@@H](Cc1ccc(C#N)cc1)C(N)=O)[C@@H](C)O)C(C)C)[C@@H](C)O"}, "B2": {"name": "hIAPP-F23FC≡N (peptide)", "peptide": "B1 peptide with F37Y", "HELM": "PEPTIDE1{K.C.N.T.A.T.C.A.T.Q.R.L.A.N.F.L.V.H.S.S.N.N.[N#Cc1ccc(C[C@H](N[*:1])C(=O)[*:2])cc1].G.A.I.L.S.S.T.N.V.G.S.N.T.Y.[am]}$PEPTIDE1,PEPTIDE1,2:R3-7:R3$$$V2.0; N-terminus assumed", "SMILES": "CC[C@H](C)[C@H](NC(=O)[C@H](C)NC(=O)CNC(=O)[C@H](Cc1ccc(C#N)cc1)NC(=O)[C@H](CC(N)=O)NC(=O)[C@H](CC(N)=O)NC(=O)[C@H](CO)NC(=O)[C@H](CO)NC(=O)[C@H](Cc1c[nH]cn1)NC(=O)[C@@H](NC(=O)[C@H](CC(C)C)NC(=O)[C@H](Cc1ccccc1)NC(=O)[C@H](CC(N)=O)NC(=O)[C@H](C)NC(=O)[C@H](CC(C)C)NC(=O)[C@H](CCCNC(=N)N)NC(=O)[C@H](CCC(N)=O)NC(=O)[C@@H](NC(=O)[C@H](C)NC(=O)[C@@H]1CSSC[C@H](NC(=O)[C@@H](N)CCCCN)C(=O)N[C@@H](CC(N)=O)C(=O)N[C@@H]([C@@H](C)O)C(=O)N[C@@H](C)C(=O)N[C@@H]([C@@H](C)O)C(=O)N1)[C@@H](C)O)C(C)C)C(=O)N[C@@H](CC(C)C)C(=O)N[C@@H](CO)C(=O)N[C@@H](CO)C(=O)N[C@H](C(=O)N[C@@H](CC(N)=O)C(=O)N[C@H](C(=O)NCC(=O)N[C@@H](CO)C(=O)N[C@@H](CC(N)=O)C(=O)N[C@H](C(=O)N[C@@H](Cc1ccc(O)cc1)C(N)=O)[C@@H](C)O)C(C)C)[C@@H](C)O"}, "B3": {"name": "hIAPP-F15FC≡N (peptide)", "peptide": "B1 peptide with F37Y", "HELM": "PEPTIDE1{K.C.N.T.A.T.C.A.T.Q.R.L.A.N.[N#Cc1ccc(C[C@H](N[*:1])C(=O)[*:2])cc1].L.V.H.S.S.N.N.F.G.A.I.L.S.S.T.N.V.G.S.N.T.Y.[am]}$PEPTIDE1,PEPTIDE1,2:R3-7:R3$$$V2.0; N-terminus assumed", "SMILES": "CC[C@H](C)[C@H](NC(=O)[C@H](C)NC(=O)CNC(=O)[C@H](Cc1ccccc1)NC(=O)[C@H](CC(N)=O)NC(=O)[C@H](CC(N)=O)NC(=O)[C@H](CO)NC(=O)[C@H](CO)NC(=O)[C@H](Cc1c[nH]cn1)NC(=O)[C@@H](NC(=O)[C@H](CC(C)C)NC(=O)[C@H](Cc1ccc(C#N)cc1)NC(=O)[C@H](CC(N)=O)NC(=O)[C@H](C)NC(=O)[C@H](CC(C)C)NC(=O)[C@H](CCCNC(=N)N)NC(=O)[C@H](CCC(N)=O)NC(=O)[C@@H](NC(=O)[C@H](C)NC(=O)[C@@H]1CSSC[C@H](NC(=O)[C@@H](N)CCCCN)C(=O)N[C@@H](CC(N)=O)C(=O)N[C@@H]([C@@H](C)O)C(=O)N[C@@H](C)C(=O)N[C@@H]([C@@H](C)O)C(=O)N1)[C@@H](C)O)C(C)C)C(=O)N[C@@H](CC(C)C)C(=O)N[C@@H](CO)C(=O)N[C@@H](CO)C(=O)N[C@H](C(=O)N[C@@H](CC(N)=O)C(=O)N[C@H](C(=O)NCC(=O)N[C@@H](CO)C(=O)N[C@@H](CC(N)=O)C(=O)N[C@H](C(=O)N[C@@H](Cc1ccc(O)cc1)C(N)=O)[C@@H](C)O)C(C)C)[C@@H](C)O"}}, "key": {"[1]": {"experiment": "Control fluorescence of small p-cyanophenylalanine peptide in solvents and buffer", "format": "physicochemical", "excerpt": "In vitro assays of amyloid formation often involve solubilizing the peptide of interest in a fluorinated alcohol, typically hexafluoroisopropanol (HFIP). The fibrillization reaction is initiated by diluting the stock solution into aqueous buffer. […] A small, soluble p-cyanophenylalanine containing peptide (Gly-PheC≡N-Ala-Ala) was synthesized for the control studies. […] The fluorescence intensity was reduced by approximately 30%."}, "[2]": {"experiment": "p-Cyanophenylalanine fluorescence kinetic assay of amyloid formation by the peptides", "format": "physicochemical", "details": "32 μM peptide, 20 mM Tris-HCl, 2% HFIP", "excerpt": "(§1) Wild-type IAPP, IAPP-Y37FC≡N and a G-FCN-A-A tetrapeptide were synthesized and the disulfide bond in IAPP was formed using dimethyl sulfoxide (DMSO) based oxidation as described in Abedini et al., Analytical Biochemistry 351, 181-186 (2006) incorporated herein by reference. The synthesis of peptides is well known in the art. Synthesizers such as the Applied Biosystems 433A are commercially available with ample instructions for use and are generally accessible to practitioners in the art. Fmoc-4-cyanoPhe was obtained from NovaBiochem. Peptides were purified via reverse phase HPLC and the identities confirmed by MALDI mass spectroscopy. Thioflavin-T fluorescence experiments were performed with a Jobin Yvon Horiba fluorescence spectrophotometer or with an Applied Phototechnology fluorescence spectrophotometer. P-cyanoPhe fluorescence was excited at 240 nm and detected at 296 nm with instrument slit widths of 10 nm on an Applied Photon Technologies fluorimeter. […]\n(§2) Fibrillization reactions were initiated by diluting the stock 50-fold into buffered (20 mM Tris-HCl, pH 7.4) aqueous solution. […] The spectrum is the average of three repeats in a 0.1 cm quartz cuvette and recorded over a range of 190-250 nm, at 1 nm intervals, with an averaging time of three seconds per scan. […]"}, "hIAPP-Y37FC≡N": {"target": "T1, hIAPP-Y37FC≡N (Homo sapiens, UniProt P10997)", "T1 construct": "hIAPP is 37 residues in length, contains a disulfide bond linking residues 2 and 7 and has an amidated C-terminus; made in house; host or cells: chemical synthesis (Fmoc solid phase; Fmoc-4-cyanoPhe from NovaBiochem)", "T1 sequence (P10997 with tags, fused parts or gaps)": "B1 peptide with F37X", "experiment": "p-Cyanophenylalanine fluorescence-detected kinetics of hIAPP-Y37FC≡N amyloid formation in presence and absence of rifampicin", "format": "biochemical", "details": "no rifampicin, 32 μM peptide", "description": "Thioflavin-T Fluorescence. All fluorescence experiments were performed with a Jobin Yvon Horiba fluorescence spectrophotometer or with an Applied Phototechnology Fluorescence Spectrophotometer. An excitation wavelength of 450 nm and emission wavelength of 485 nm was used for the thioflavin-T studies. The excitation and emission slits were set at 5 nm. A 1.0 cm cuvette was used and each point was averaged for 1 minute. All solutions for these studies were prepared by diluting filtered stock solution (0.45 μm filter) into a Tris-HCl buffer (pH 7.4) and thioflavin-T solution immediately before the measurement. The final concentration was 32 μM peptide and 25 μM thioflavin-T with or without rifampicin in 2% HFIP for all experiments. The final concentration of ascorbic acid used in antioxidant experiments was 83 μM. All solutions were stirred during the fluorescence experiments. P-cyanophenylalanine fluorescence was excited at 240 nm and detected at 296 nm, with both excitation and emission slits of 10 nm."}, "[3]": {"experiment": "Thioflavin-T fluorescence kinetic assay of amyloid (fibril) formation by the peptides", "format": "physicochemical", "details": "32 μM peptide, 20 mM Tris-HCl, 2% HFIP", "excerpt": "as §1, §2"}, "[4]": {"target": "the molecule itself", "experiment": "cell-based or functional assay"}}, "note": "Where a chain is given by its changes, count along the chain named."}
{"molecule": "Gly-PheC≡N-Ala-Ala", "values": [{"measurement": "reduction of fluorescence intensity", "setting": "[1]; 20 mM Tris-HCl", "result": "approximately 30%"}, {"measurement": "fluorescence intensity in water vs 2% HFIP", "setting": "[1]; water, 2% HFIP, very similar in 100% HFIP", "result": "the same"}]}
{"molecule": "KCNTATCATQRLANFLVHSSNNFGAILSSTNVGSNTFC≡N (HELM PEPTIDE1{K.C.N.T.A.T.C.A.T.Q.R.L.A.N.F.L.V.H.S.S.N.N.F.G.A.I.L.S.S.T.N.V.G.S.N.T.[N#Cc1ccc(C[C@H](N[*:1])C(=O)[*:2])cc1].[am]}$PEPTIDE1,PEPTIDE1,2:R3-7:R3$$$V2.0; N-terminus assumed; SMILES CC[C@H](C)[C@H](NC(=O)[C@H](C)NC(=O)CNC(=O)[C@H](Cc1ccccc1)NC(=O)[C@H](CC(N)=O)NC(=O)[C@H](CC(N)=O)NC(=O)[C@H](CO)NC(=O)[C@H](CO)NC(=O)[C@H](Cc1c[nH]cn1)NC(=O)[C@@H](NC(=O)[C@H](CC(C)C)NC(=O)[C@H](Cc1ccccc1)NC(=O)[C@H](CC(N)=O)NC(=O)[C@H](C)NC(=O)[C@H](CC(C)C)NC(=O)[C@H](CCCNC(=N)N)NC(=O)[C@H](CCC(N)=O)NC(=O)[C@@H](NC(=O)[C@H](C)NC(=O)[C@@H]1CSSC[C@H](NC(=O)[C@@H](N)CCCCN)C(=O)N[C@@H](CC(N)=O)C(=O)N[C@@H]([C@@H](C)O)C(=O)N[C@@H](C)C(=O)N[C@@H]([C@@H](C)O)C(=O)N1)[C@@H](C)O)C(C)C)C(=O)N[C@@H](CC(C)C)C(=O)N[C@@H](CO)C(=O)N[C@@H](CO)C(=O)N[C@H](C(=O)N[C@@H](CC(N)=O)C(=O)N[C@H](C(=O)NCC(=O)N[C@@H](CO)C(=O)N[C@@H](CC(N)=O)C(=O)N[C@H](C(=O)N[C@@H](Cc1ccc(C#N)cc1)C(N)=O)[C@@H](C)O)C(C)C)[C@@H](C)O) [hIAPP-Y37FC≡N, human IAPP with Tyr-37 replaced with p-cyanoPhe]", "values": [{"measurement": "time of the growth period (20 to 80% completion) by p-cyanophenylalanine fluorescence", "setting": "[2]; pH 7.4", "result": "248 ± 12", "unit": "s"}, {"measurement": "midpoint (t50) of amyloid formation as determined by p-cyanophenylalanine fluorescence", "setting": "[2]; pH 7.4, 25° C.", "result": "1,100±100 s"}, {"measurement": "growth phase (10% to 80% completion) in absence of the drug", "setting": "hIAPP-Y37FC≡N", "result": 6, "unit": "min"}, {"measurement": "t50 time when rifampicin is absent", "setting": "hIAPP-Y37FC≡N; 2% HFIP, 25° C., pH 7.4", "result": 18, "unit": "min"}, {"measurement": "time of the growth period (20 to 80% completion) by thioflavin-T fluorescence", "setting": "[3]; pH 7.4", "result": "247 ± 12", "unit": "s"}, {"measurement": "midpoint (t50) of amyloid formation as determined by thioflavin-T fluorescence", "setting": "[3]; pH 7.4, 25° C.", "result": "1,130±100 s"}]}
{"molecule": "B1", "values": [{"measurement": "midpoint (t50) of amyloid formation, p-cyanophenylalanine fluorescence", "setting": "[4]", "result": 1100, "unit": "s"}, {"measurement": "midpoint (t50) of amyloid formation, thioflavin-T fluorescence", "setting": "[4]", "result": 1130, "unit": "s"}]}
{"molecule": "B2", "values": [{"measurement": "midpoint (t50) of amyloid formation, p-cyanophenylalanine fluorescence", "setting": "[4]", "result": 982, "unit": "s"}, {"measurement": "midpoint (t50) of amyloid formation, thioflavin-T fluorescence", "setting": "[4]", "result": 972, "unit": "s"}]}
{"molecule": "B3", "values": [{"measurement": "midpoint (t50) of amyloid formation, p-cyanophenylalanine fluorescence", "setting": "[4]", "result": 936, "unit": "s"}, {"measurement": "midpoint (t50) of amyloid formation, thioflavin-T fluorescence", "setting": "[4]", "result": 913, "unit": "s"}]}
